Measurements as given in the supplement of paper PMC10567573.

B1: KRT18 (parent)
chain: RAQYDELARKNREELDKYWSQQIE
B2: INTS3 (parent)
chain: FSDDEEDLNSKGKKREFRFHPIKE

Variants of: B1
Assay: protein stability index of a GFP-peptide fusion (GPS, HEK-293T) (PSI 1-6); higher = more stable
Conditions: c terminus: a fixed tail appended
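Also: lentivirally expressed fusions sorted by FACS into six bins by GFP to DsRed ratio, PSI derived from sequencing read proportions per bin multiplied by bin number.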

Protein stability index: each site, then its substitutions
W19: C 4.91; M 5.01; N 4.54; Q 5.13; P 5.03; A 4.73; I 4.5; K 4.41; S 4.25; V 4.68; R 4.71; Y 4.58; G 5.07; T 4.97; F 4.19; H 4.85; E 5.28; D 4.56; L 4.42
K17: A 2.7; E 3.94; S 3.67; W 3.65; I 3.16; C 3.28; H 3.14; P 4.25; L 3.14; D 4.21; V 3.64; M 3.51; G 3.57; N 3.02; F 3.62; Y 3.42; R 2.56; Q 2.96; T 3.21
Y18: D 5.12; F 3.5; A 4.62; E 5.17; G 4.27; K 4.24; N 4.92; M 4.36; V 4.33; S 4.51; W 3.62; I 3.97; L 4.6; T 4.57; C 3.95; H 4.06; P 4.34; Q 4.77; R 4.09
I23: H 2.23; F 2.23; G 4.41; K 5.03; M 2.28; A 3.97; V 4.14; T 4.69; D 5.28; R 4.68; W 3.97; L 2.21; S 4.96; C 3.45; P 4.96; Q 4.43; N 4.39; E 5.1
Q22: I 3.37; C 2.31; W 4; P 3.83; A 3.44; K 4.27; V 3.08; H 4.67; M 2.67; F 2.75; T 3.99; L 3.15; G 3.68; N 3.31; R 3.78; S 3.82; D 4.67; Y 3.44; E 3.7
E24: I 3.12; K 3.34; Y 2.73; L 2.23; A 2.48; T 3.36; H 3.72; R 2.3; G 3.77; W 2.5; N 3.13; C 3.05; S 3.27; V 3.01; D 3.8; P 3.87; M 2.31; F 3.16; Q 2.94
D16: Y 2.72; T 2.92; W 2.21; S 2.36; P 3.63; R 3.08; Q 2.69
Q21: L 2.74; M 2.98; C 4; D 2.88; T 3.76; S 3.4; E 2.88; N 3.71; W 3.28; F 3.62; I 3.05; Y 3.08; R 3.81; V 3.17; G 3.58; P 4.25; K 3.06; A 3.05; H 3.41
S20: Y 2.79; Q 2.17; E 4.23; M 2.56; H 1.59; K 1.22; I 2.31; V 3.18; T 2.79; D 4.29; C 2.63; A 3.15; L 2.33; F 3.04; P 3.85; N 2.79; W 2.6; R 2.17; G 3.97

Variants of: B2
Assay: as above
Conditions: c terminus: a fixed tail appended

Protein stability index of substitutions, site by site:
N9: Y 2.29; I 2.06; Q 2.68; M 2.66; K 2.21; A 3.15; W 2.12; H 2.77; V 3.83; T 3.36; C 2.67; L 2.99; D 3.79; G 2.82; S 2.98; P 2.61; R 2.76; E 3.6; F 2.31
E5: M 2.61; Q 2.3; L 2.55; R 2; V 2.9; C 2.49; Y 2.29; W 1.88; P 2.48; T 2.68; A 2.81; D 2.68; K 2.17; I 2.81; S 2.1; F 2.41; N 2.39; H 2.18; G 2.44
D3: W 2.45; V 2.61; C 2.42; M 2.55; E 2.61; K 2.59; T 2.9; A 2.19; N 2.57; Y 2.32; R 2.19; G 2.85; Q 2.58; I 2.09; L 2.23; S 2.55; F 2.38; P 2.29; H 2.69
D7: E 3.14; G 2.13; C 1.99; Y 2.23; A 2.59; T 2.58; I 2.12; L 2.56; W 2.23; H 2.52; K 2.04; V 2.7; F 2.47; S 2.66; P 2.18; N 2.29; Q 2.15; M 2.59; R 1.92
E6: P 2.36; G 2.7; Q 2.29; C 2.62; H 2.29; T 3.08; L 2.69; M 2.18; N 2.1; V 2.27; W 2.32; A 2.6; S 2.15; D 2.8; F 2.13; Y 2.24; R 2.07; I 2.27; K 2.61
D4: P 2.53; F 2.19; S 2.75; H 2.95; L 2.43; C 2.4; G 2.52; V 2.23; E 3.05; A 2.72; I 2.38; T 2.56; R 1.85; M 2.4; Q 2.9; N 2.82; W 2.4; K 2.02; Y 2.51
F1: N 3.24; D 2.84; R 2.71; H 2.72; M 2.58; Q 3; S 2.32; G 2.99; C 2.73; K 2.33; V 3.29; W 2.84; Y 2.94; A 2.89; P 3.19; I 3.2; E 3.36; L 2.69; T 3.05
S2: R 2.14; G 3.22; P 2.53; M 2.6; T 2.88; N 2.92; Y 2.43; L 2.47; F 2.31; C 2.8; E 3.39; W 2.33; K 3.23; V 2.2; D 3.34; I 2.39; Q 2.5; A 3.14; H 2.3
S10: F 2.45; E 2.99; C 3.08; A 2.58; D 3.64
L8: P 3.4; M 2.78; D 3.26; V 2.99; R 2.94; N 2.99; K 2.78; T 3.23; W 2.84; S 3.37; G 3.29; Q 3.44; Y 3; H 2.73; E 3.4; C 2.99; I 2.83; F 2.75; A 3.35
